Measurements taken from US20250326818A1 (UNIVERSIT T BASEL, published 2025).
Residue numbers refer to the chain shown, from its start.

Tests used:
Experiment in all cases: BLI (Octet), biotinylated CD123 ECD captured on streptavidin tips, hIL3 as analyte, level at 250 s normalised to loading
CD123 ECD E51Q = target: T1, CD123 ECD E51Q (human, UniProt P26951 19-305)
T1 construct: Recombinant ECD
T1 sequence: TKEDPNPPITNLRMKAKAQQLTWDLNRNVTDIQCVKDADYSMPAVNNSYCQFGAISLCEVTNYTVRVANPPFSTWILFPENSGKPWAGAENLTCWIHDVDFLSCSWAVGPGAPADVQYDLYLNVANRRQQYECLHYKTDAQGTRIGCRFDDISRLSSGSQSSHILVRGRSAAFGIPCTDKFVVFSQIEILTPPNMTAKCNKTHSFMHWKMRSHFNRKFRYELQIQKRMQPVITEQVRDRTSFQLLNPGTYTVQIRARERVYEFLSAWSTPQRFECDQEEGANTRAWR
Method: (§1) Binding of hIL3 (SinoBiological, PN: 11858-H08H) (analyte) to CD123 ECD wt. and variants (ligands) was performed using Streptavidin capture biosensor (SA) (Sartorius, PN: 18-5019). CD123 ECD wt. and variants were biotinylated using Biotinylation kit Type B (Abeam, PN: ab201796) following manufacturer instructions. Biotinylated CD123 ECD wt. and variants (ligands) were captured on SA tips for 1000 s to achieve a nm shift of 1.5 to 2 nm. Analyte hIL3 was titrated at 7 concentrations from 500 to 7.8 nM. Association to analyte was monitored for 300 s and dissociation for 120 s. Buffer only well was used as reference. No regeneration was performed, and a new set of tips was used for each biotinylated captured ligand. Data were analyzed using the Octet Data Analysis software HT 12.0. Due to the fast on/off nature of the interaction data were analyzed using Steady state analysis. Qualitative representation in FIG. 11 binding level were taken at 250 s association for all concentrations.

CD123 ECD R84E = target: T2, CD123 ECD R84E (human, UniProt P26951 19-305)
T2 construct: Recombinant ECD
T2 sequence: T1 sequence with Q33E, R66E
Method: as §1

CD123 ECD R84T = target: T3, CD123 ECD R84T (human, UniProt P26951 19-305)
T3 construct: Recombinant ECD
T3 sequence: T1 sequence with Q33E, R66T
Method: as §1

CD123 ECD S59E = target: T4, CD123 ECD S59E (human, UniProt P26951 19-305)
T4 construct: Recombinant ECD
T4 sequence: T1 sequence with Q33E, S41E
Method: as §1

CD123 ECD E51T = target: T5, CD123 ECD E51T (human, UniProt P26951 19-305)
T5 construct: Recombinant ECD
T5 sequence: T1 sequence with Q33T
Method: as §1

CD123 ECD S59R = target: T6, CD123 ECD S59R (human, UniProt P26951 19-305)
T6 construct: Recombinant ECD
T6 sequence: T1 sequence with Q33E, S41R
Method: as §1

binding result (CD123 ECD E51Q): binds
binding result (CD123 ECD R84E): binds
binding result (CD123 ECD R84T): binds
binding result (CD123 ECD S59E): binds
binding result (CD123 ECD E51T): binds
binding result (CD123 ECD S59R): binds
B1: hIL3 (ligand, human, UniProt P08700 20-152, looked up)
chain: APMTQTTPLKTSWVNCSNMIDEIITHLKQPPLPLLDFNNLNGEDQDILMENNLRRPNLEAFNRAVKSLQNASAIESILKNLLPCLPLATAAPTRHPIHIKDGDWNEFRRKLTFYLKTLENAQAQQTTLSLAIF
notes: also called Interleukin-3
